From US20230183328A1

Tests used:
CD32a [1] = molecular target: CD32a (UniProt P12318); assay: CD32a binding assay; formulation F0, 5°C/2M
CD32a [2] = molecular target: CD32a (UniProt P12318); assay: CD32a binding assay; formulation F17, 5°C/2M
[3] = molecular target: antigen of the Antigen binding ELISA (not named; BAN2401 is described as binding human Aβ protofibrils) (UniProt P05067); assay: antigen binding ELISA; formulation F17, initial
[4] = molecular target: antigen of the Antigen binding ELISA (not named; BAN2401 is described as binding human Aβ protofibrils) (UniProt P05067); assay: antigen binding ELISA; formulation F18, 25°C dark/7 D
CD32a [5] = molecular target: CD32a (UniProt P12318); assay: CD32a binding assay; formulation F0, 25°C/2M
[6] = molecular target: antigen of the Antigen binding ELISA (not named; BAN2401 is described as binding human Aβ protofibrils) (UniProt P05067); assay: antigen binding ELISA; formulation F13, 5°C/2M
[7] = molecular target: antigen of the Antigen binding ELISA (not named; BAN2401 is described as binding human Aβ protofibrils) (UniProt P05067); assay: antigen binding ELISA; formulation F17, 25°C/2M
[8] = molecular target: antigen of the Antigen binding ELISA (not named; BAN2401 is described as binding human Aβ protofibrils) (UniProt P05067); assay: antigen binding ELISA; formulation F13, initial
[9] = molecular target: antigen of the Antigen binding ELISA (not named; BAN2401 is described as binding human Aβ protofibrils) (UniProt P05067); assay: antigen binding ELISA; formulation F18, 5°C/2M
[10] = molecular target: antigen of the Antigen binding ELISA (not named; BAN2401 is described as binding human Aβ protofibrils) (UniProt P05067); assay: antigen binding ELISA; formulation F15, freeze-thaw 3 cycles
[11] = molecular target: antigen of the Antigen binding ELISA (not named; BAN2401 is described as binding human Aβ protofibrils) (UniProt P05067); assay: antigen binding ELISA; formulation F0, 25°C/1M
[12] = molecular target: antigen of the Antigen binding ELISA (not named; BAN2401 is described as binding human Aβ protofibrils) (UniProt P05067); assay: antigen binding ELISA; formulation F17, 25°C/1M
[13] = molecular target: antigen of the Antigen binding ELISA (not named; BAN2401 is described as binding human Aβ protofibrils) (UniProt P05067); assay: antigen binding ELISA; formulation F13, 25°C/2M
[14] = molecular target: antigen of the Antigen binding ELISA (not named; BAN2401 is described as binding human Aβ protofibrils) (UniProt P05067); assay: antigen binding ELISA; formulation F15, 25°C/2M
CD32a [15] = molecular target: CD32a (UniProt P12318); assay: CD32a binding assay; formulation F17, 25°C/2M
CD32a [16] = molecular target: CD32a (UniProt P12318); assay: CD32a binding assay; formulation F0, 25°C/1M
[17] = molecular target: antigen of the Antigen binding ELISA (not named; BAN2401 is described as binding human Aβ protofibrils) (UniProt P05067); assay: antigen binding ELISA; formulation F18, 25°C/2M
[18] = molecular target: antigen of the Antigen binding ELISA (not named; BAN2401 is described as binding human Aβ protofibrils) (UniProt P05067); assay: antigen binding ELISA; formulation F0, initial
CD32a [19] = molecular target: CD32a (UniProt P12318); assay: CD32a binding assay; formulation F18, 25°C 1000 lx/7 D
CD32a [20] = molecular target: CD32a (UniProt P12318); assay: CD32a binding assay; formulation F15, freeze-thaw 3 cycles
[21] = molecular target: antigen of the Antigen binding ELISA (not named; BAN2401 is described as binding human Aβ protofibrils) (UniProt P05067); assay: antigen binding ELISA; formulation F18, 25°C/1M
CD32a [22] = molecular target: CD32a (UniProt P12318); assay: CD32a binding assay; formulation F18, 25°C dark/7 D
[23] = molecular target: antigen of the Antigen binding ELISA (not named; BAN2401 is described as binding human Aβ protofibrils) (UniProt P05067); assay: antigen binding ELISA; formulation F15, 25°C/1M
CD32a [24] = molecular target: CD32a (UniProt P12318); assay: CD32a binding assay; formulation F18, initial
CD32a [25] = molecular target: CD32a (UniProt P12318); assay: CD32a binding assay; formulation F15, 25°C 1000 lx/7 D
CD32a [26] = molecular target: CD32a (UniProt P12318); assay: CD32a binding assay; formulation F18, 25°C/2M
CD32a [27] = molecular target: CD32a (UniProt P12318); assay: CD32a binding assay; formulation F17, 25°C/1M
CD32a [28] = molecular target: CD32a (UniProt P12318); assay: CD32a binding assay; formulation F18, initial; remark: listed apart in the source
[29] = molecular target: antigen of the Antigen binding ELISA (not named; BAN2401 is described as binding human Aβ protofibrils) (UniProt P05067); assay: antigen binding ELISA; formulation F18, freeze-thaw 3 cycles
CD32a [30] = molecular target: CD32a (UniProt P12318); assay: CD32a binding assay; formulation F13, 25°C/2M
CD32a [31] = molecular target: CD32a (UniProt P12318); assay: CD32a binding assay; formulation F0, initial
CD32a [32] = molecular target: CD32a (UniProt P12318); assay: CD32a binding assay; formulation F15, initial
CD32a [33] = molecular target: CD32a (UniProt P12318); assay: CD32a binding assay; formulation F13, 25°C/1M
CD32a [34] = molecular target: CD32a (UniProt P12318); assay: CD32a binding assay; formulation F15, 5°C/2M
[35] = molecular target: antigen of the Antigen binding ELISA (not named; BAN2401 is described as binding human Aβ protofibrils) (UniProt P05067); assay: antigen binding ELISA; formulation F18, 25°C 1000 lx/7 D
[36] = molecular target: antigen of the Antigen binding ELISA (not named; BAN2401 is described as binding human Aβ protofibrils) (UniProt P05067); assay: antigen binding ELISA; formulation F15, 5°C/2M
[37] = molecular target: antigen of the Antigen binding ELISA (not named; BAN2401 is described as binding human Aβ protofibrils) (UniProt P05067); assay: antigen binding ELISA; formulation F18, initial
[38] = molecular target: antigen of the Antigen binding ELISA (not named; BAN2401 is described as binding human Aβ protofibrils) (UniProt P05067); assay: antigen binding ELISA; formulation F15, 25°C dark/7 D
[39] = molecular target: antigen of the Antigen binding ELISA (not named; BAN2401 is described as binding human Aβ protofibrils) (UniProt P05067); assay: antigen binding ELISA; formulation F0, 5°C/2M
[40] = molecular target: antigen of the Antigen binding ELISA (not named; BAN2401 is described as binding human Aβ protofibrils) (UniProt P05067); assay: antigen binding ELISA; formulation F0, 25°C/2M
CD32a [41] = molecular target: CD32a (UniProt P12318); assay: CD32a binding assay; formulation F18, freeze-thaw 3 cycles
CD32a [42] = molecular target: CD32a (UniProt P12318); assay: CD32a binding assay; formulation F15, 25°C dark/7 D
CD32a [43] = molecular target: CD32a (UniProt P12318); assay: CD32a binding assay; formulation F15, 25°C/2M
CD32a [44] = molecular target: CD32a (UniProt P12318); assay: CD32a binding assay; formulation F15, 25°C/1M
CD32a [45] = molecular target: CD32a (UniProt P12318); assay: CD32a binding assay; formulation F13, 5°C/2M
[46] = molecular target: antigen of the Antigen binding ELISA (not named; BAN2401 is described as binding human Aβ protofibrils) (UniProt P05067); assay: antigen binding ELISA; formulation F15, initial
CD32a [47] = molecular target: CD32a (UniProt P12318); assay: CD32a binding assay; formulation F13, initial
CD32a [48] = molecular target: CD32a (UniProt P12318); assay: CD32a binding assay; formulation F18, 5°C/2M
[49] = molecular target: antigen of the Antigen binding ELISA (not named; BAN2401 is described as binding human Aβ protofibrils) (UniProt P05067); assay: antigen binding ELISA; formulation F15, 25°C 1000 lx/7 D
[50] = molecular target: antigen of the Antigen binding ELISA (not named; BAN2401 is described as binding human Aβ protofibrils) (UniProt P05067); assay: antigen binding ELISA; formulation F13, 25°C/1M
[51] = molecular target: antigen of the Antigen binding ELISA (not named; BAN2401 is described as binding human Aβ protofibrils) (UniProt P05067); assay: antigen binding ELISA; formulation F17, 5°C/2M
CD32a [52] = molecular target: CD32a (UniProt P12318); assay: CD32a binding assay; formulation F0, 25°C/1M; remark: listed apart in the source
CD32a [53] = molecular target: CD32a (UniProt P12318); assay: CD32a binding assay; formulation F18, 25°C/1M
CD32a [54] = molecular target: CD32a (UniProt P12318); assay: CD32a binding assay; formulation F17, initial

Chain of CD32a (P12318 36-218): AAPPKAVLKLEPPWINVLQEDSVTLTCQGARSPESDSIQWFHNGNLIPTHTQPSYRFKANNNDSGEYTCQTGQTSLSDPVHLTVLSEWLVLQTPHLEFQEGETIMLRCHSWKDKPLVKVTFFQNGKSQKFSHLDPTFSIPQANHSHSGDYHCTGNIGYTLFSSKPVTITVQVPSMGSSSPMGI

FcR (Binding assay (CD32a)) (CD32a [1]): 93.8%
FcR (Binding assay (CD32a)) (CD32a [2]): 103%
ELISA (Antigen binding ELISA) [3]: 107%
ELISA (Antigen binding ELISA) [4]: 105%
FcR (Binding assay (CD32a)) (CD32a [5]): 93.5%
ELISA (Antigen binding ELISA) [6]: 104%
ELISA (Antigen binding ELISA) [7]: 102%
ELISA (Antigen binding ELISA) [8]: 109%
ELISA (Antigen binding ELISA) [9]: 118%
ELISA (Antigen binding ELISA) [10]: 108%
ELISA (Antigen binding ELISA) [11]: 103%
ELISA (Antigen binding ELISA) [12]: 107%
ELISA (Antigen binding ELISA) [13]: 107%
ELISA (Antigen binding ELISA) [14]: 96.9%
FcR (Binding assay (CD32a)) (CD32a [15]): 105%
FcR (Binding assay (CD32a)) (CD32a [16]): 95.5%
ELISA (Antigen binding ELISA) [17]: 97.8%
ELISA (Antigen binding ELISA) [18]: 101%
FcR (Binding assay (CD32a)) (CD32a [19]): 109%
FcR (Binding assay (CD32a)) (CD32a [20]): 108%
ELISA (Antigen binding ELISA) [21]: 97%
FcR (Binding assay (CD32a)) (CD32a [22]): 105%
ELISA (Antigen binding ELISA) [23]: 104%
FcR (Binding assay (CD32a)) (CD32a [24]): 106%
FcR (Binding assay (CD32a)) (CD32a [25]): 118%
FcR (Binding assay (CD32a)) (CD32a [26]): 92.9%
FcR (Binding assay (CD32a)) (CD32a [27]): 104%
FcR (Binding assay (CD32a)) (CD32a [28]): 92.4%
ELISA (Antigen binding ELISA) [29]: 104%
FcR (Binding assay (CD32a)) (CD32a [30]): 102%
FcR (Binding assay (CD32a)) (CD32a [31]): 91.7%
FcR (Binding assay (CD32a)) (CD32a [32]): 109%
FcR (Binding assay (CD32a)) (CD32a [33]): 99.4%
FcR (Binding assay (CD32a)) (CD32a [34]): 99%
ELISA (Antigen binding ELISA) [35]: 109%
ELISA (Antigen binding ELISA) [36]: 123%
ELISA (Antigen binding ELISA) [37]: 108%
ELISA (Antigen binding ELISA) [38]: 107%
ELISA (Antigen binding ELISA) [39]: 103%
ELISA (Antigen binding ELISA) [40]: 91.8%
FcR (Binding assay (CD32a)) (CD32a [41]): 106%
FcR (Binding assay (CD32a)) (CD32a [42]): 104%
FcR (Binding assay (CD32a)) (CD32a [43]): 102%
FcR (Binding assay (CD32a)) (CD32a [44]): 98.3%
FcR (Binding assay (CD32a)) (CD32a [45]): 100%
ELISA (Antigen binding ELISA) [46]: 102%
FcR (Binding assay (CD32a)) (CD32a [47]): 101%
FcR (Binding assay (CD32a)) (CD32a [48]): 94.7%
ELISA (Antigen binding ELISA) [49]: 101%
ELISA (Antigen binding ELISA) [50]: 104%
ELISA (Antigen binding ELISA) [51]: 126%
FcR (Binding assay (CD32a)) (CD32a [52]): 95.3%
FcR (Binding assay (CD32a)) (CD32a [53]): 91.9%
FcR (Binding assay (CD32a)) (CD32a [54]): 117%
Substance: BAN2401 (antibody)
